Data: patent US20230050846A1, “TREATMENT OF HEPATIC AND CARDIOVASCULAR DISORDERS” (LIFESEARCH, priority 2019, published 2023)

Molecular target: T1, human F1Fo-ATPase (Homo sapiens, UniProt P06576)
T1 construct: Human F1Fo-ATPase was purified from HepG2 cells by immunocapture; endogenous in cells; host or cells: HepG2 cells; complex isolated by immunocapture with anti-ATP synthase antibody 12F4AD8AF8 (#ab109867, Abcam)
Assay: F1-ATPase activity assay (NADH-coupled, purified enzyme)
Type: biochemical
Conditions: 1 μM
Source text: The mature human IF1 protein (SEQ ID NO: 5) was chemically synthesized by GenScript (Piscataway, N.J., USA) at >80% purity. The peptides derived from the mature human IF1 sequence (IF1-1-60, IF1-10-56, IF1-10-47) were produced by BachemAG (Bubendorf, Switzerland) with >90% purity.
Human F1Fo-ATPase was purified from HepG2 cells by immunocapture using mouse monoclonal anti-ATP synthase antibody (12F4AD8AF8, #ab109867, Abcam) according to manufacturer's instructions.
Measurement of F1-ATPase activity was assayed as previously described. Briefly, 10 μg of F1Fo-ATPase was prepared into 50 μL of activity assay buffer (10 mM HEPES, 150 mM NaCl, 5 mM KCl, 5 mM MgCl2, 0.5 mM phosphoenolpyruvate, 250 μM NADH, 100 μM ATP, 20 U lactate dehydrogenase, 120 U pyruvate kinase). The mixture was incubated at 37° C. for 30 min. Then the F1-ATPase activity was measured in a 96-well microplate by adding 5 μL of the mixture (1 μg of F1Fo-ATPase per point) per well to 200 μL of activity assay buffer at 37° C., and by adding 5 μL of buffer with or without peptide (1 μM each). The reduction in the absorbance of NADH was measured at 340 nm for 5 min with a Varioskan™ Flash Multimode Reader (Thermo Fisher Scientific). A slope was calculated for each well and the results expressed as a percentage of the control slope.

inhibition of F1-ATPase activity as compared to control: 96%
B1: IF1: mature human IF1 protein (SEQ ID NO: 5), chemically synthesized, natural inhibitor of F1-ATPase (protein, listed as Homo sapiens)
chain: GSDQSENVDRGAGSIREAGGAFGKREQAEEERYFRAQSREQLAALKKHHEEEIVHHKKEIERLQKEIERHKQKIKMLKHDD
